Results on four molecules are retold here after patent publication US20210388087A1 (Chugai, published 2021).

To fix the notation:
B1: GPC3 ERY22-dBBDu_167/L091 (bispecific antibody, human IgG1, kappa, L234A L235A, N297A)
heavy 1: DIVMTQSPLSLPVTPGEPASISCRSSQSLVHSNRNTYLHWYQQKPGQAPRLLIYKVSNRFSGVPDRFSGSGSGTDFTLKISRVEAEDVGVYYCSQNTHVPPTFGQGTKLEIKSSASTKGPSVFPLAPSSKSTSGGTAALGCLVKDYFPEPVTVSWNSGALTSGVHTFPAVLQSSGLYSLSSVVTVPSSSLGTQTYICNVNHKPSNTKVDKKVEPKSCDKTHTCPPCPAPEAAGGPSVFLFPPKPKDTLMISRTPEVTCVVVDVSHEDPEVKFNWYVDGVEVHNAKTKPREEQYASTYRVVSVLTVLHQDWLNGKEYKCKVSNKALPAPIEKTISKAKGQPREPQVCTLPPSRDELTKNQVSLWCLVKGFYPSDIAVEWESNGQPENNYKTTPPVLDSDGSFFLYSKLTVDKSRWQQGNVFSCSVMHEALHNHYTQKSLSLSPHHHHHHHH
light 1: QVQLVQSGAEVKKPGASVKVSCKASGYTFTDYEMHWIRQPPGQGLEWIGAIDPKTGDTAYSQKFKGRVTLTADKSTSTAYMELSSLTSEDTAVYYCTRFYSYTYWGQGTLVTVSSASVAAPSVFIFPPSDEQLKSGTASVVCLLNNFYPREAKVQWKVDNALQSGNSQESVTEQDSKDSTYSLSSTLTLSKADYEKHKVYACEVTHQGLSSPVTKSFNRGEC
heavy 2: QVQLVESGGGLVQPGRSLRLSCAASGFTFSNAWMHWVRQAPGKGLEWVAQIKDKGNLYAAYYAPSVKGRFTISRDDSKNSIYLQMNSLKTEDTAVYYCHYVHYASAGGGLPGFGVDAWGQGTTVTVSSASTKGPSVFPLAPSSKSTSGGTAALGCLVKDYFPEPVTVSWNSGALTSGVHTFPAVLQSSGLYSLSSVVTVPSSSLGTQTYICNVNHKPSNTKVDKKVEPKSCDKTHTCPPCPAPEAAGGPSVFLFPPKPKDTLMISRTPEVTCVVVDVSHEDPEVKFNWYVDGVEVHNAKTKPREEQYASTYRVVSVLTVLHQDWLNGKEYKCKVSNKALPAPIEKTISKAKGQPREPQVYTLPPSRCELTKNQVSLSCAVKGFYPSDIAVEWESNGQPENNYKTTPPVLDSDGSFFLVSKLTVDKSRWQQGNVFSCSVMHEALHNHYTQKSLSLSPDYKDDDDK
light 2: DIVMTQSPLSLPVTPGEPASISCSASESLLHNNRHTYLHWYQQKPGQAPRLLIYRVSNRFNGVPDRFSGSGSGTDFTLKISRVEAEDVGVYYCGQGTQVPFTFGQGTKLEIKRTVAAPSVFIFPPSDEQLKSGTASVVCLLNNFYPREAKVQWKVDNALQSGNSQESVTEQDSKDSTYSLSSTLTLSKADYEKHKVYACEVTHQGLSSPVTKSFNRGEC
B2: GPC3 ERY22-dBBDu_186/L106 (bispecific antibody, human IgG1, kappa, L234A L235A, N297A)
heavy 1: DIVMTQSPLSLPVTPGEPASISCRSSQSLVHSNRNTYLHWYQQKPGQAPRLLIYKVSNRFSGVPDRFSGSGSGTDFTLKISRVEAEDVGVYYCSQNTHVPPTFGQGTKLEIKSSASTKGPSVFPLAPSSKSTSGGTAALGCLVKDYFPEPVTVSWNSGALTSGVHTFPAVLQSSGLYSLSSVVTVPSSSLGTQTYICNVNHKPSNTKVDKKVEPKSCDKTHTCPPCPAPEAAGGPSVFLFPPKPKDTLMISRTPEVTCVVVDVSHEDPEVKFNWYVDGVEVHNAKTKPREEQYASTYRVVSVLTVLHQDWLNGKEYKCKVSNKALPAPIEKTISKAKGQPREPQVCTLPPSRDELTKNQVSLWCLVKGFYPSDIAVEWESNGQPENNYKTTPPVLDSDGSFFLYSKLTVDKSRWQQGNVFSCSVMHEALHNHYTQKSLSLSPHHHHHHHH
light 1: QVQLVQSGAEVKKPGASVKVSCKASGYTFTDYEMHWIRQPPGQGLEWIGAIDPKTGDTAYSQKFKGRVTLTADKSTSTAYMELSSLTSEDTAVYYCTRFYSYTYWGQGTLVTVSSASVAAPSVFIFPPSDEQLKSGTASVVCLLNNFYPREAKVQWKVDNALQSGNSQESVTEQDSKDSTYSLSSTLTLSKADYEKHKVYACEVTHQGLSSPVTKSFNRGEC
heavy 2: QVQLVESGGGLVQPGRSLRLSCAASGFTFSNAWMHWVRQAPGKGLEWVAQIKDRSNQYATYYAPSVKGRFTISRDDSKNSIYLQMNSLKTEDTAVYYCHYVHYAQASTVLPAFGVDAWGQGTTVTVSSASTKGPSVFPLAPSSKSTSGGTAALGCLVKDYFPEPVTVSWNSGALTSGVHTFPAVLQSSGLYSLSSVVTVPSSSLGTQTYICNVNHKPSNTKVDKKVEPKSCDKTHTCPPCPAPEAAGGPSVFLFPPKPKDTLMISRTPEVTCVVVDVSHEDPEVKFNWYVDGVEVHNAKTKPREEQYASTYRVVSVLTVLHQDWLNGKEYKCKVSNKALPAPIEKTISKAKGQPREPQVYTLPPSRCELTKNQVSLSCAVKGFYPSDIAVEWESNGQPENNYKTTPPVLDSDGSFFLVSKLTVDKSRWQQGNVFSCSVMHEALHNHYTQKSLSLSPDYKDDDDK
light 2: DIVMTQSPLSLPVTPGEPASISCSTSEELLHINRFIFLHWYQQKPGQAPRLLIYKVANRFMGVPDRFSGSGSGTDFTLKISRVEAEDVGVYYCAQGSQVPFTFGQGTKLEIKRTVAAPSVFIFPPSDEQLKSGTASVVCLLNNFYPREAKVQWKVDNALQSGNSQESVTEQDSKDSTYSLSSTLTLSKADYEKHKVYACEVTHQGLSSPVTKSFNRGEC
B3: GPC3 ERY22-dBBDu_186/L098 (bispecific antibody, human IgG1, kappa, L234A L235A, N297A)
heavy 1: DIVMTQSPLSLPVTPGEPASISCRSSQSLVHSNRNTYLHWYQQKPGQAPRLLIYKVSNRFSGVPDRFSGSGSGTDFTLKISRVEAEDVGVYYCSQNTHVPPTFGQGTKLEIKSSASTKGPSVFPLAPSSKSTSGGTAALGCLVKDYFPEPVTVSWNSGALTSGVHTFPAVLQSSGLYSLSSVVTVPSSSLGTQTYICNVNHKPSNTKVDKKVEPKSCDKTHTCPPCPAPEAAGGPSVFLFPPKPKDTLMISRTPEVTCVVVDVSHEDPEVKFNWYVDGVEVHNAKTKPREEQYASTYRVVSVLTVLHQDWLNGKEYKCKVSNKALPAPIEKTISKAKGQPREPQVCTLPPSRDELTKNQVSLWCLVKGFYPSDIAVEWESNGQPENNYKTTPPVLDSDGSFFLYSKLTVDKSRWQQGNVFSCSVMHEALHNHYTQKSLSLSPHHHHHHHH
light 1: QVQLVQSGAEVKKPGASVKVSCKASGYTFTDYEMHWIRQPPGQGLEWIGAIDPKTGDTAYSQKFKGRVTLTADKSTSTAYMELSSLTSEDTAVYYCTRFYSYTYWGQGTLVTVSSASVAAPSVFIFPPSDEQLKSGTASVVCLLNNFYPREAKVQWKVDNALQSGNSQESVTEQDSKDSTYSLSSTLTLSKADYEKHKVYACEVTHQGLSSPVTKSFNRGEC
heavy 2: QVQLVESGGGLVQPGRSLRLSCAASGFTFSNAWMHWVRQAPGKGLEWVAQIKDRSNQYATYYAPSVKGRFTISRDDSKNSIYLQMNSLKTEDTAVYYCHYVHYAQASTVLPAFGVDAWGQGTTVTVSSASTKGPSVFPLAPSSKSTSGGTAALGCLVKDYFPEPVTVSWNSGALTSGVHTFPAVLQSSGLYSLSSVVTVPSSSLGTQTYICNVNHKPSNTKVDKKVEPKSCDKTHTCPPCPAPEAAGGPSVFLFPPKPKDTLMISRTPEVTCVVVDVSHEDPEVKFNWYVDGVEVHNAKTKPREEQYASTYRVVSVLTVLHQDWLNGKEYKCKVSNKALPAPIEKTISKAKGQPREPQVYTLPPSRCELTKNQVSLSCAVKGFYPSDIAVEWESNGQPENNYKTTPPVLDSDGSFFLVSKLTVDKSRWQQGNVFSCSVMHEALHNHYTQKSLSLSPDYKDDDDK
light 2: DIVMTQSPLSLPVTPGEPASISCAASEELVHINRYIFLHWYQQKPGQAPRLLIYKVSNRFIGVPDRFSGSGSGTDFTLKISRVEAEDVGVYYCAQGSQVPFTFGQGTKLEIKRTVAAPSVFIFPPSDEQLKSGTASVVCLLNNFYPREAKVQWKVDNALQSGNSQESVTEQDSKDSTYSLSSTLTLSKADYEKHKVYACEVTHQGLSSPVTKSFNRGEC
B4: GPC3 ERY22-dBBDu_186/L096 (bispecific antibody, human IgG1, kappa, L234A L235A, N297A)
heavy 1: DIVMTQSPLSLPVTPGEPASISCRSSQSLVHSNRNTYLHWYQQKPGQAPRLLIYKVSNRFSGVPDRFSGSGSGTDFTLKISRVEAEDVGVYYCSQNTHVPPTFGQGTKLEIKSSASTKGPSVFPLAPSSKSTSGGTAALGCLVKDYFPEPVTVSWNSGALTSGVHTFPAVLQSSGLYSLSSVVTVPSSSLGTQTYICNVNHKPSNTKVDKKVEPKSCDKTHTCPPCPAPEAAGGPSVFLFPPKPKDTLMISRTPEVTCVVVDVSHEDPEVKFNWYVDGVEVHNAKTKPREEQYASTYRVVSVLTVLHQDWLNGKEYKCKVSNKALPAPIEKTISKAKGQPREPQVCTLPPSRDELTKNQVSLWCLVKGFYPSDIAVEWESNGQPENNYKTTPPVLDSDGSFFLYSKLTVDKSRWQQGNVFSCSVMHEALHNHYTQKSLSLSPHHHHHHHH
light 1: QVQLVQSGAEVKKPGASVKVSCKASGYTFTDYEMHWIRQPPGQGLEWIGAIDPKTGDTAYSQKFKGRVTLTADKSTSTAYMELSSLTSEDTAVYYCTRFYSYTYWGQGTLVTVSSASVAAPSVFIFPPSDEQLKSGTASVVCLLNNFYPREAKVQWKVDNALQSGNSQESVTEQDSKDSTYSLSSTLTLSKADYEKHKVYACEVTHQGLSSPVTKSFNRGEC
heavy 2: QVQLVESGGGLVQPGRSLRLSCAASGFTFSNAWMHWVRQAPGKGLEWVAQIKDRSNQYATYYAPSVKGRFTISRDDSKNSIYLQMNSLKTEDTAVYYCHYVHYAQASTVLPAFGVDAWGQGTTVTVSSASTKGPSVFPLAPSSKSTSGGTAALGCLVKDYFPEPVTVSWNSGALTSGVHTFPAVLQSSGLYSLSSVVTVPSSSLGTQTYICNVNHKPSNTKVDKKVEPKSCDKTHTCPPCPAPEAAGGPSVFLFPPKPKDTLMISRTPEVTCVVVDVSHEDPEVKFNWYVDGVEVHNAKTKPREEQYASTYRVVSVLTVLHQDWLNGKEYKCKVSNKALPAPIEKTISKAKGQPREPQVYTLPPSRCELTKNQVSLSCAVKGFYPSDIAVEWESNGQPENNYKTTPPVLDSDGSFFLVSKLTVDKSRWQQGNVFSCSVMHEALHNHYTQKSLSLSPDYKDDDDK
light 2: DIVMTQSPLSLPVTPGEPASISCRTSQELVHINRYIFLHWYQQKPGQAPRLLIYKVYNRFQGVPDRFSGSGSGTDFTLKISRVEAEDVGVYYCAQGTSVPYTFGQGTKLEIKRTVAAPSVFIFPPSDEQLKSGTASVVCLLNNFYPREAKVQWKVDNALQSGNSQESVTEQDSKDSTYSLSSTLTLSKADYEKHKVYACEVTHQGLSSPVTKSFNRGEC

Sequence of human CD137 on HDLM-2 cells (Q07011 24-255): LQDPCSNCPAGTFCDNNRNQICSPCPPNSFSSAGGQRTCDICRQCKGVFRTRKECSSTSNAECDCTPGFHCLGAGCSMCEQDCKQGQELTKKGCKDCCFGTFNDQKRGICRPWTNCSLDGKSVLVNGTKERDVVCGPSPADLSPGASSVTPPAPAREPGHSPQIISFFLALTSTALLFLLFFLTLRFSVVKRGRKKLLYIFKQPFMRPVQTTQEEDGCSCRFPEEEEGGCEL

This test addresses human CD137 on HDLM-2 cells (human, UniProt Q07011 24-255). Kind of test: cell-based or functional assay.
As to B1, the “Agonistic activity compared to B, antibody 6 ug/mL” value was -2.21%; the “Agonistic activity compared to B, antibody 30 ug/mL” value was 1.1%; the “Agonistic activity compared to Ctrl, antibody 6 ug/mL” value is -7.68%; the “Agonistic activity compared to Ctrl, antibody 30 ug/mL” value is 4.19%. Also, the “hIL-6 (pg/mL), antibody 6 ug/mL” value is 935 pg/mL and the “hIL-6 (pg/mL), antibody 30 ug/mL” value amounted to 944 pg/mL.
As for B2, the “Agonistic activity compared to B, antibody 6 ug/mL” value was determined as 13.2%; the “Agonistic activity compared to B, antibody 30 ug/mL” value was 19.4%; the “Agonistic activity compared to Ctrl, antibody 6 ug/mL” value was found to be 45.8%; the “Agonistic activity compared to Ctrl, antibody 30 ug/mL” value amounted to 73.6%. The “hIL-6 (pg/mL), antibody 6 ug/mL” value was determined as 1480 pg/mL and the “hIL-6 (pg/mL), antibody 30 ug/mL” value came to 1570 pg/mL.
For B3, the “Agonistic activity compared to B, antibody 6 ug/mL” value was determined as 13.9%; the “Agonistic activity compared to B, antibody 30 ug/mL” value amounted to 24.6%; the “Agonistic activity compared to Ctrl, antibody 6 ug/mL” value was determined as 48.3%; the “Agonistic activity compared to Ctrl, antibody 30 ug/mL” value worked out at 93.5%. Besides, the “hIL-6 (pg/mL), antibody 6 ug/mL” value was 1500 pg/mL and the “hIL-6 (pg/mL), antibody 30 ug/mL” value was 1750 pg/mL.
With B4, the “Agonistic activity compared to B, antibody 6 ug/mL” value was found to be 19%; the “Agonistic activity compared to B, antibody 30 ug/mL” value amounted to 24.2%; the “Agonistic activity compared to Ctrl, antibody 6 ug/mL” value is 66.1%; the “Agonistic activity compared to Ctrl, antibody 30 ug/mL” value was found to be 91.7%. For the same molecule, the “hIL-6 (pg/mL), antibody 6 ug/mL” value is 1680 pg/mL and the “hIL-6 (pg/mL), antibody 30 ug/mL” value turned out to be 1740 pg/mL.
